Data set [1] addresses T1, Y67D8A.3 (Y67D8A.3) (Caenorhabditis elegans) (UniProt Q95XU1).
T1 sequence: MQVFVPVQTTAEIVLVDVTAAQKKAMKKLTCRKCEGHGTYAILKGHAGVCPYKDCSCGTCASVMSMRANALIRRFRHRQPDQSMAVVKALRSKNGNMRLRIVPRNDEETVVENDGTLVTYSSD

In data set [2] the target is T2, nhr-1 (R09G11.2) (Caenorhabditis elegans) (UniProt Q21878).
T2 sequence: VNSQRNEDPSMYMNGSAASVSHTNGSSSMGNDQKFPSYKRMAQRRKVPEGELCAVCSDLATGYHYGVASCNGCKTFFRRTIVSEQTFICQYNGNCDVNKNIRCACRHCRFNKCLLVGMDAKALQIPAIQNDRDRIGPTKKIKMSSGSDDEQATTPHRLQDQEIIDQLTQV

For data set [3], the target named is T3, nhr-3 (H01A20.1) (Caenorhabditis elegans) (UniProt Q9XTJ4).
T3 sequence: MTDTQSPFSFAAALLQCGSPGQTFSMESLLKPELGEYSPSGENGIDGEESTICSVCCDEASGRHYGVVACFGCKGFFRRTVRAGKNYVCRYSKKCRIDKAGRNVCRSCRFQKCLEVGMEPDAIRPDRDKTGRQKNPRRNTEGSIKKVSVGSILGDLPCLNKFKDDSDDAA

The target in data set [4] is nhr-34 (F58G6.5) (Caenorhabditis elegans) (UniProt Q21006).
Data set [5] concerns the target T4, nhr-46 (C45E5.6) (Caenorhabditis elegans) (UniProt Q95QR2).
T4 sequence: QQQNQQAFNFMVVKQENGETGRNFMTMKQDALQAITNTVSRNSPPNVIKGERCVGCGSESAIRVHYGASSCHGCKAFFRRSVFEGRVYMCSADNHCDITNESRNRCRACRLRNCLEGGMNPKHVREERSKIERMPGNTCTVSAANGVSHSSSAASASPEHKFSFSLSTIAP

The target in data set [6] is T5, nhr-7 (F54D1.4) (Caenorhabditis elegans) (UniProt Q20765).
T5 sequence: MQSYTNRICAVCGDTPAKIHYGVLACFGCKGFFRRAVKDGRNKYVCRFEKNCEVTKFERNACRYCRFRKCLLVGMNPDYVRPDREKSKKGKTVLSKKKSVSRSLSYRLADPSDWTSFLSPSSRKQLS

Data set [7] addresses T6, nhr-154 (C13C4.2) (Caenorhabditis elegans) (UniProt O01931).
T6 sequence: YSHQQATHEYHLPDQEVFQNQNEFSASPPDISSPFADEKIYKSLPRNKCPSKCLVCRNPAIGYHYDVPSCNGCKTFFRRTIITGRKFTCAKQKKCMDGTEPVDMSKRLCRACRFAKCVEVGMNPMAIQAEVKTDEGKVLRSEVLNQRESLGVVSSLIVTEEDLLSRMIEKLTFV

Data set [8] deals with T7, fkh-9 (K03C7.2) (Caenorhabditis elegans) (UniProt Q21187).
T7 sequence: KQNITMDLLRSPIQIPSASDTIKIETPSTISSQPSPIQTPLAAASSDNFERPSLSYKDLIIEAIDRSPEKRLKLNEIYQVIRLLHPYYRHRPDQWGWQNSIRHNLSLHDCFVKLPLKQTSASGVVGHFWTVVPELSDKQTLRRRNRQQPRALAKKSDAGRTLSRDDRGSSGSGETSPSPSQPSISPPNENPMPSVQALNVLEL

The target in data set [9] is T8, let-381 (F26B1.7) (Caenorhabditis elegans) (UniProt P91278).
T8 sequence: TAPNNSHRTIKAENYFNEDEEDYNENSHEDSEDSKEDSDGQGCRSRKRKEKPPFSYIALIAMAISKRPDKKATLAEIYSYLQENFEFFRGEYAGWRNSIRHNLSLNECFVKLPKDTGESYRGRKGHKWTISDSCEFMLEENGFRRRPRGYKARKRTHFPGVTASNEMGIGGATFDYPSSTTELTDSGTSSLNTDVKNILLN

Data set [10] deals with T9, lin-31 (K10G6.1) (Caenorhabditis elegans) (UniProt P34683).
T9 sequence: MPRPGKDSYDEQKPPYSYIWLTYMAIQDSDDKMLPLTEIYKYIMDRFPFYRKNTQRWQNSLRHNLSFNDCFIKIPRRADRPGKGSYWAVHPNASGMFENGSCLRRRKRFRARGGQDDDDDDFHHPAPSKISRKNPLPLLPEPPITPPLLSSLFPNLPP

Data set [11] addresses T10, C46E10.8 (C46E10.8) (Caenorhabditis elegans) (UniProt O44719).
T10 sequence: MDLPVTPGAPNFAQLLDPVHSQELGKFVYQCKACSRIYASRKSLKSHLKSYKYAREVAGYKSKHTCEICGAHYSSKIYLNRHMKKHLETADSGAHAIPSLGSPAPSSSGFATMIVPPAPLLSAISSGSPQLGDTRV

In data set [12] the target is T11, nhr-122 (Y41D4B.9) (Caenorhabditis elegans) (UniProt Q95Y09).
T11 sequence: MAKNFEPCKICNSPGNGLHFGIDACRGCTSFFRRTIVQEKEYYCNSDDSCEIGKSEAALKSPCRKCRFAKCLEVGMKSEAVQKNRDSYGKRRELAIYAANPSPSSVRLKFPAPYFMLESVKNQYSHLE

The target of data set [13] is T12, daf-12 (F11A1.3) (Caenorhabditis elegans) (UniProt G5EFF5).
T12 sequence: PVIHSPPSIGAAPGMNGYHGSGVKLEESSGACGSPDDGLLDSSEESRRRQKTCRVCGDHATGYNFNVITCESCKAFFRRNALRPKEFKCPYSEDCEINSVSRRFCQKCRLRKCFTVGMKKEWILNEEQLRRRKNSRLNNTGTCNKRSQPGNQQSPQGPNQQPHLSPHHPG

In data set [14] the target is T13, dmd-6 (F13G11.1) (Caenorhabditis elegans) (UniProt O62159).
T13 sequence: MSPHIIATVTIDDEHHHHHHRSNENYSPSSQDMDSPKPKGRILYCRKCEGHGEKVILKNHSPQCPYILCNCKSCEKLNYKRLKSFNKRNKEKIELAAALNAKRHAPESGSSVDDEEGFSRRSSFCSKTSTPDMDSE

Data set [15] concerns T14, dmd-3 (Y43F8C.10) (Caenorhabditis elegans).
T14 sequence: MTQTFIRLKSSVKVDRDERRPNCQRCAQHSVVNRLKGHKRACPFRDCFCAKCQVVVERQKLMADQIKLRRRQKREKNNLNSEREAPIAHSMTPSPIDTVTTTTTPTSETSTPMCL

In data set [16] the target is T15, mab-3 (Y53C12B.5) (Caenorhabditis elegans) (UniProt O18214).
T15 sequence: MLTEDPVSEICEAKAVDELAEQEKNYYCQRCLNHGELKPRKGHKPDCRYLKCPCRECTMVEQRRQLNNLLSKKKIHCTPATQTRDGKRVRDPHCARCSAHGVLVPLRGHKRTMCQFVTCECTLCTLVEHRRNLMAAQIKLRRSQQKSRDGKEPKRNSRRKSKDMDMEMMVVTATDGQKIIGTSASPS

Data set [17] addresses T16, pop-1 (W10C8.2) (Caenorhabditis elegans) (UniProt Q10666).
T16 sequence: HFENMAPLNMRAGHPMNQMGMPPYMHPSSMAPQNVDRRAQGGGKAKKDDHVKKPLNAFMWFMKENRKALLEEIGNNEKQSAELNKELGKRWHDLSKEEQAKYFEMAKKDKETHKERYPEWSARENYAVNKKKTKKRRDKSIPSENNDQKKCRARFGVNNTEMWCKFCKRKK

The test system of data set [18] is T17, C34D1.1 (C34D1.1) (Caenorhabditis elegans).
T17 sequence: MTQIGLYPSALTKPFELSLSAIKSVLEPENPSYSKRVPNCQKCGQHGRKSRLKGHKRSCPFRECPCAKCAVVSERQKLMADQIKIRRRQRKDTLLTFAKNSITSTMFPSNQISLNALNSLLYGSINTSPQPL

For data set [19], the target named is T18, efl-2 (Y48C3A.17) (Caenorhabditis elegans) (UniProt A5HWA8).
T18 sequence: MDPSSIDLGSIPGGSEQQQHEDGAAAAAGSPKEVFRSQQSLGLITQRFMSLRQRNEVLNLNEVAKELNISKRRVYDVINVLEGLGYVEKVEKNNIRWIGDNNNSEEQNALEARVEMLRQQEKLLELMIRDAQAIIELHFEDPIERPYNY

In data set [20] the target is T19, ztf-27 (T09F3.1) (Caenorhabditis elegans) (UniProt G5EDA0).
T19 sequence: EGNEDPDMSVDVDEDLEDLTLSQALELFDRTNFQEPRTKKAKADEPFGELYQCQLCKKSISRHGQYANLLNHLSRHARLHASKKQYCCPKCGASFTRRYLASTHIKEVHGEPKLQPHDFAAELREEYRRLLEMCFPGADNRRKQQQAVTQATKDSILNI

Sequence of nhr-34 (F58G6.5) (Caenorhabditis elegans) (Q21006 99-268): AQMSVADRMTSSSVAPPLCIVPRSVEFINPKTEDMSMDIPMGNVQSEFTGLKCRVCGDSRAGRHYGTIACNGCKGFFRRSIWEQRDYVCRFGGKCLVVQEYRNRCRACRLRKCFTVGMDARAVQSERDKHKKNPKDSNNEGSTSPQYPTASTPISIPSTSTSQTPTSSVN

For the sequence “AAAGGTTG (double strand) [8-mer AAAGGTTG]”, the binding signal (PBM E-score (-0.5 to 0.5)) in [1] is 0.454.
On to “AAAGATCA (double strand) [8-mer AAAGATCA]”, for which the binding signal (PBM E-score (-0.5 to 0.5)) in data set [2] came to 0.472; in data set [3] it was 0.488; in data set [4], 0.485; in data set [5], 0.49; in data set [6], 0.476.
Consider “GCGCCAAA (double strand) [8-mer GCGCCAAA]”, for which the binding signal (PBM E-score (-0.5 to 0.5)) in data set [7] is 0.453.
With “GTAAACAA (double strand) [8-mer GTAAACAA]”, the binding signal (PBM E-score (-0.5 to 0.5)) turned out to be 0.492 in data set [8], 0.486 in data set [9] and 0.47 in data set [10].
In turn, “TAAATTTA (double strand) [8-mer TAAATTTA]” returned a binding signal (PBM E-score (-0.5 to 0.5)) in data set [11] of 0.459.
The sequence “AGGCGCCA (double strand) [8-mer AGGCGCCA]” had a binding signal (PBM E-score (-0.5 to 0.5)) in data set [7] of 0.452.
In turn, “GACTCCAA (double strand) [8-mer GACTCCAA]” had a binding signal (PBM E-score (-0.5 to 0.5)) in [12] of 0.459.
Same read-out and setting: then “AGACTCCA (double strand) [8-mer AGACTCCA]”, with 0.457.
With “AAGACCAA (double strand) [8-mer AAGACCAA]”, the binding signal (PBM E-score (-0.5 to 0.5)) was determined as 0.457 in [3], 0.473 in data set [4] and 0.469 in data set [6].
In [11], “ATAAATTA (double strand) [8-mer ATAAATTA]” displayed a binding signal (PBM E-score (-0.5 to 0.5)) of 0.451.
In turn, “TACTCCAA (double strand) [8-mer TACTCCAA]” yielded a binding signal (PBM E-score (-0.5 to 0.5)) in data set [12] of 0.459.
Consider “AAAGGTCA (double strand) [8-mer AAAGGTCA]”, for which the binding signal (PBM E-score (-0.5 to 0.5)) came to 0.493 in data set [1], 0.491 in data set [13] and 0.479 in data set [3].
Turning to “AATTTATG (double strand) [8-mer AATTTATG]”, the binding signal (PBM E-score (-0.5 to 0.5)) in data set [11] was determined as 0.465.
Sequence “ACTCCAAT (double strand) [8-mer ACTCCAAT]” displayed a binding signal (PBM E-score (-0.5 to 0.5)) in data set [12] of 0.464.
In the case of “GAAAGGTC (double strand) [8-mer GAAAGGTC]”, the binding signal (PBM E-score (-0.5 to 0.5)) in data set [1] stood at 0.461.
Turning to “AAGATCAA (double strand) [8-mer AAGATCAA]”, the binding signal (PBM E-score (-0.5 to 0.5)) in [3] turned out to be 0.486; in data set [4] it was 0.494; in [5], 0.496; in [6], 0.455.
For “AATTTATA (double strand) [8-mer AATTTATA]”, the binding signal (PBM E-score (-0.5 to 0.5)) came to 0.457 in data set [11] and 0.471 in data set [14].
Regarding “TAAACAAA (double strand) [8-mer TAAACAAA]”, the binding signal (PBM E-score (-0.5 to 0.5)) worked out at 0.493 in data set [9] and 0.473 in [10].
Take “AAAGACCA (double strand) [8-mer AAAGACCA]”: the values for the binding signal (PBM E-score (-0.5 to 0.5)) in [3] and in [6] were 0.459 and 0.472, respectively.
“ATGTTGCA (double strand) [8-mer ATGTTGCA]”: the binding signal (PBM E-score (-0.5 to 0.5)) in [15] came out at 0.459; in data set [16], 0.497.
Sequence “CATCAAAG (double strand) [8-mer CATCAAAG]” had a binding signal (PBM E-score (-0.5 to 0.5)) in [17] of 0.463.
Regarding “AAAAGGTC (double strand) [8-mer AAAAGGTC]”, the binding signal (PBM E-score (-0.5 to 0.5)) in data set [1] was found to be 0.456.
Consider “AATGTTGC (double strand) [8-mer AATGTTGC]”, for which the binding signal (PBM E-score (-0.5 to 0.5)) in data set [18] was 0.47; in data set [15] it was 0.465; in data set [16] it was 0.498.
For the sequence “TGTAAACA (double strand) [8-mer TGTAAACA]”, the binding signal (PBM E-score (-0.5 to 0.5)) turned out to be 0.485 in data set [8], 0.461 in [9] and 0.476 in data set [10].
For “GGCGCCAA (double strand) [8-mer GGCGCCAA]”, the binding signal (PBM E-score (-0.5 to 0.5)) was 0.488 in data set [19] and 0.46 in data set [7].
Regarding “TATTTACA (double strand) [8-mer TATTTACA]”, the binding signal (PBM E-score (-0.5 to 0.5)) in data set [10] worked out at 0.474.
“ATACTCCA (double strand) [8-mer ATACTCCA]”: in data set [12], the binding signal (PBM E-score (-0.5 to 0.5)) was found to be 0.456.
On to “TGGCGCCA (double strand) [8-mer TGGCGCCA]”, for which the binding signal (PBM E-score (-0.5 to 0.5)) in data set [19] amounted to 0.492; in data set [7] it was 0.474; in [20], 0.491.

The values above are taken from paper PMC4434323.
